Data as given in patent US9649360B2, “Pharmaceutical composition for the treatment and/or prevention of disease involving abnormal accumulation of amyloid β protein” (SHIGA UNIVERSITY OF MEDICAL SCIENCE, priority 2012, dated 2017).

How the values were obtained:
[1] = system: endogenous Notch-1; test: γ-secretase cleavage of endogenous Notch-1 in mouse embryonic fibroblasts (NICD immunoblot); type: cell-based; conditions: MEFs, EDTA 1.5 mM; DAPT 1 μM; n=3
Description: (§1) Brain homogenates were lysed in a buffer (25 mM HEPES, pH 7.5, 150 mM NaCl, 2 mM EDTA, protease inhibitor cocktail and 10% glycerol) containing 1% Nonidet P40. Immunoblotting was performed as previously described (Nishimura, M., et al. Nat Med 5, 164-169 (1999)).
Next, γ-secretase cleavage of endogenous Notch-1 in mouse embryonic fibroblasts (MEFs) was examined (FIG. 1d). Treatment of MEF with EDTA (1.5 mM) induces cleavage of TMIC (transmembrane/intracellular Notch) and generates NEXT (Notch extracellular truncation). NEXT is further cleaved by γ-secretase to release NICD (Notch intracellular domain). The NICD production was inhibited by DAPT (1 μM). β-Actin was used as a loading control. The graphs show quantified NICD signal intensities (n=3).

[2] = system: γ-secretase; test: AICD production in transfected HEK293 cells treated with NEM (immunoblot); type: cell-based, human; conditions: NEM for 60 minutes, n=3
Description: as §1
HEK293 cells transfected with control, ILEI siRNA, or ILEI cDNA (respectively denoted by ILEI-k/d and ILEI-oe in the figure) were treated with N-ethyl maleimide (NEM) for 60 minutes to block degradation of AICD. The AICD production was inhibited by a treatment with DAPT, which is a γ-secretase inhibitor (D in the figure). β-Actin was used as a loading control. The graphs show quantified AICD signal intensities (n=3).

[3] = system: stable ILEI-knockdown HEK293 cells; test: Aβ secretion after adding purified ILEI-His to culture solution of stable ILEI-knockdown HEK293 cells; type: cell-based, human
Description: Using this cell culture solution, the measurement of secretory Aβ from the cells was performed according to ELISAs specific for human Aβ40 and Aβ42 (Wako Pure Chemical Industries).
Purified ILEI-His was added into the culture solution of stable ILEI-knockdown HEK293 cells at the indicated concentration (μg ml^−1).

[4] = system: ILEI-Tg mice; conditions: mouse, in vivo
[5] = system: ILEI-Tg mice; test: Immunoblotting of brain homogenates of ILEI-Tg mice (APP-CTF, NICD); type: in vivo, mouse; conditions: 6-week-old ILEI-Tg mice versus wild-type littermates
[6] = system: ILEI-Tg mice; test: Aβ40 and Aβ42 in brain homogenate fractions of ILEI-Tg mice (ELISA); type: in vivo, mouse; conditions: Tris-buffered saline-soluble and insoluble fractions, 8 months old, n=5, versus wild-type littermates

C[C@H](NC(=O)Cc1cc(F)cc(F)c1)C(=O)N[C@H](C(=O)OC(C)(C)C)c1ccccc1 [DAPT, reference compound]
NICD production (Notch cleavage by γ-secretase) [1]: inhibited | AICD production [2]: inhibited

B1: ILEI-His: purified recombinant ILEI protein from the pcDNA6/V5-His construct, added from outside the cells (protein, UniProt Q92520 25-227, looked up)
Protein FAM3C: QVFEIKMDASLGNLFARSALDTAARSTKPPRYKCGISKACPEKHFAFKMASGAANVVGPKICLEDNVLMSGVKNNVGRGINVALANGKTGEVLDTKYFDMWGGDVAPFIEFLKAIQDGTIVLMGTYDDGATKLNDEARRLIADLGSTSITNLGFRDNWVFCGGKGIKTKSPFEQHIKNNKDTNKYEGWPEVVEMEGCIPQKQD
modifications: V5-His tag
notes: purified recombinant ILEI protein from the pcDNA6/V5-His construct, added from outside the cells
Aβ secretion ([3]; at a concentration of 7 μg ml^−1): decreased to almost the same extent as in the case of introducing siRNA-resistant ILEI cDNA | Aβ secretion ([3]; purified protein added to the culture solution at the indicated concentrations (μg ml^−1)): diminished Aβ secretion in a dose-dependent manner

B2: ILEI: interleukin-like epithelial-mesenchymal transition inducer, secretory protein, SEQ ID NO: 1 (mature: SEQ ID NO: 2) (protein, listed as Homo sapiens)
chain: MRVAGAAKLVVAVAVFLLTFYVISQVFEIKMDASLGNLFARSALDTAARSTKPPRYKCGISKACPEKHFAFKMASGAANVVGPKICLEDNVLMSGVKNNVGRGINVALANGKTGEVLDTKYFDMWGGDVAPFIEFLKAIQDGTIVLMGTYDDGATKLNDEARRLIADLGSTSITNLGFRDNWVFCGGKGIKTKSPFEQHIKNNKDTNKYEGWPEVVEMEGCIPQKQD
NICD production (Notch cleavage by γ-secretase) [1]: does not perturb Notch cleavage | development, fertility and gross morphology [4]: normal development and fertility without any gross morphological defect | NICD levels in the brains [5]: no alteration | decrease in APP-CTF levels in the brains [5]: 30% | Aβ40 level in brain homogenates [6]: significantly reduced | Aβ42 level in brain homogenates [6]: significantly reduced
